Test: yeast display, Sf9 membrane polyspecificity reagent, FACS + sequencing; frameworks hold sequencing errors
How it was run: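 After 36–48 hours of galactose induction, yeast (Saccharomyces cerevisiae BJ5465) displaying a synthetic nanobody library were stained at 4 °C for 1 hour with 10% biotinylated, detergent-solubilized Sf9 membrane reagent. Streptavidin microbeads enriched the stained cells before FACS sorting into low and high (top ~1%) gates on anti-HA and streptavidin fluorescence. Each clone's polyreactivity label reflects its gate of origin.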

| Sequence | polyreactivity (PSR sort gate) |
| --- | --- |
| QVQLVESGGGLVQAGGSLRLSCAASGRTYVFYVMGWYRQAPGKERELVASISRSGGSTYYADSVKGRFTISRDNAKNTVYLQMNSLKPEDTAVYYCAADQLYYGERDYIWGYYYWGQGTQVTVSS | low polyreactivity |
| QVQLVESGGGLVQAGGSLRLSCAASGSTFVINAMGWYRQAPGKERELVAAISYDGGGTYYADSVKGRFTISRDNAKNTVYLQMNSLKPEDTAVYYCAAENFYPYTYYASDYWGQGTQVTVSS | high polyreactivity |
| QVQLVESGGGLVKAGGSLRLSCAASGSIYTNAMGWYRQAPGKERELVAAISWSGGRTYYADSVKGRFTISRDNAKNTVYLQINSLKPEDTAVYYCNPRGTRIASGHYYWGQGTLVTVSS | high polyreactivity |
| QVQLVESGGGLVQAGGSLRLSCAASGSIFQHNAMGWYRQAPGKERELVATISESGGSTYYADSVKGRFTISRDNAKNTVYLQMNSLKPEDTAVYYCNTDYDYGWWDLGEFDYWGQGTQVTVSS | low polyreactivity |
| QVQLVESGGGLVQAGGSLRLSCAASGLIFGTNAMGWYRQAPGKERELVAAISGSGGRTYYADSVKGRFTISRDNAKNTVYLQMNSLKPEDTAVYYCATAWYLGRYRRLGYWGQGTQVTVSS | high polyreactivity |
| QVQLVESGGGLVQAGGSLRLSCAASGRTSVIYAMGWYRQAPGKERELVASIRRGGSTSYADSVKGRFTISRDNAKNTVYLQMNSLKPEDTAVYYCAARKRSVYGTEYDYWGQGTQVTVSS | high polyreactivity |
| QVQLVESGGGLVQAGGSLRLSSAASGSTFTFYAMGWYRQAPGKERELVATISWSTGTTYYADSVKGRFTISRDNAKNTVYLQMNSLKPEVTAVYYCAAPWSYRYDYWGQGTQVTVSS | low polyreactivity |
| QVQLVESGGGLVQAGGSLRLSCAASGRIFYANSMGWYRQAPGKERELVASISARGGYTYYADSVKGRFTISRDTAKNTVYLQMNSLKPEDTAVYYCAAEYLAVSGYWYAYWGQGTQVTVSS | high polyreactivity |
| QVQLVESGGGLVHAGGSLRLSCAASGRTFKYYGMGWYREAPGKERELVATISRSSSRTYYADSVKGRFTISRDNAKNTVYLQMNSLKPEDTAVYYCAADRWGARRKQYDENGYWGQGTQVTVSS | high polyreactivity |
| QVQLVESGGGLVQAGGSLRLSCAASGSIFDVNAMGWYRQAPGKERELVAGISWSGGSTYYADSVKGRFTISRDNAKNTVYLQMNSLKPEDTAVYYCNAEGPIYFYFYRGMDYWGQGTQVTVSS | low polyreactivity |
| QVQLVESGVGLVQAGGSLRLSCAASGNIFWWNAMGWYRQAPGKERELVAAITSDSTTYYADSVKGRFTISRDNAKKTVYFQMNSLKPEDTAVYYCAAYSYGGQGVDYGYWGQGTQVNVSS | low polyreactivity |
| QVQLVESGGGLVQAGGSLRLSCAASGRIFADYAMGWYRQAPGKERELVAAISWRGGSRYYADSVKGRFTSSRDNAKNTVYLQMNSLKPEDTAVYYCNKASPADYDYWGQGTQVTVSS | low polyreactivity |
| QVQLGESGGGLVQAGGSLRLSCAASGFTFTHYSMGWYRQAPGKERELVAAISTSGGSTYYADSVKGRFTISRDTAKNSVYLQMNSLKPEDTAVYYCAARRDGCVLWGYYYWGQGTQVTVSS | low polyreactivity |
| QVQLVESGGGLVQAGGSLRLSCAASGSIFQENAMGWYRQAPGKERELVAAINTGSITSYADSVKGRFTISRDNAKNTVYLQMNSLKPEDTAVYYCAADSFSLYDSWGQGTQVTVSS | low polyreactivity |
| QVQLVESGGGLVQAGGSLRLSCAASGRTFFYYAMGWYRQAPGKERELVAAISTNGGSTYYADSVKGRFTISRDNAKNTVYLQMNSMKPDDTAVYYCNTYAKPHRSGGGLGGHYYWGQGTQVTVSS | low polyreactivity |
| QVQLVESGGGLVQAGGSLRLSCAASGRTFGRYAMGWYRQAPGKERELVAAITRGGSTNYADSVKGRFTISRDNAKNTVYLQMNSLKPEDTAVYYCAKSVRYRYDYWGQGTQVTVSS | high polyreactivity |
| QVQLVESGGGLVQAGGSLRLSCAASGRIFYINAMGWYIQAPGKERELVASITGSGGRTYYADSVKGRFTISRDNAKNTVYLQMNSLKPEDTAVYYCNADLYVGYLYYLYDYWGQGTQVTVSS | low polyreactivity |
| QVQLVESGGGLVQAGGSLRLSCAASGLTFAAYAMGWYRQAPGKEREMVAAISRRGGSTYYADSVKGRFTISRDNAKNTVYLQMNRLKPEDTAVYYCARGGSRLTQGWLVTPYDYDYWGQGTQVNVSS | high polyreactivity |
| QVQLVESGGGLVQAGGSLRLSCAASGGTIIGYAMGWYRQAPGKERELVAAITSGGSTYYADSVKGRFTISRDNAKNTVYLQMNSLKPEDTAVYYCAKSYGGLGSIYRFYYWGQGTQVTVSS | low polyreactivity |
| QVQLEESGGGLVQAGGSLRLSCAASGRIFQYYDMGWYRPATGKERELVAGIRTNGSSTYYADSVKGRFTISRDNAKNTVYLQMNSLKPEDSAVYYCAARHYRYLRQYDYWGQGTQVTVSS | low polyreactivity |
| QVQLVESGGGLVQAGGSLHLSCAASGFTFGRYAMGWFRQAPGKERELVAAISRRGGSTYYADSVKGRFTISRDNANNTVYLQMNSLKPEDTAVYYCNVDKYRIVGFHSPYDYWVQGTQVTVSS | high polyreactivity |
| QVQLVESGGGLVQAGGSLRLSCAASGFTFYRYAMGWYRQAPGKERELVAAITSGGSTNYADSVKGRFTISRDNANNTVYLQMNSLKPEDTAVYYCNAGRYVRWWWYSPDDYWGQGTQVTVSS | high polyreactivity |
| QVQLVESGGGLVQAGGSLRLSCAASGLSSLRMLWDGIDRRLGKKGSWLPLITSGGDSTNYADSVKGRFTISRDNAKNTVYLQMNSLKPEDTAVYYCAADLDYPYGYWGQGTQVTVSS | low polyreactivity |
| QVQLVESGGGLLQAGGSLRLSSAASGIIFYAYAMGWYRQAPGKERELVAAITFSAVSTYYADSVKGRFTISRDNAKNTVYLQMNCLKPEDTAVYYCAAEAYKHGVWDYDYWGQGTQVTVSA | low polyreactivity |
| QVQLVESGGGLVQAGGSLRLSCAASGSIFRRNAMGWYRQAPGKERELVATITSDGSTDYADSVKGRFTISRDNAKNTVYLQMNSLKPEDTAVYYCAADRGVYDPGDYWGQGTQVTVSS | low polyreactivity |
| QVQLVESGGGLVQAGGSLRLSCAASGSTFTTNAMGWYRQAPGKERELVASITWSGGGTNYADSVKGRFTISRDNAKNSVFLQMNSLKPEDTAVYSCADDYDDSHLRSDYWGQGTQVTVSS | low polyreactivity |
| QVQLVESGGGLVQAGGSLRISCAASGFTFKAYAMGWYRLAPGKERELVAAITKSGGRTFYADSVKGRFTISRDNAKNTVYLQMNSLKPEDTAVYYCAASYTVYYWGQGTQVTVSS | high polyreactivity |
| QVQLVESGVGLVQAGGSLRLICAASGSIFWSNAMGWYTQAPGKERELVAAISSGGSTYADSVKGRFTISRDNAKNTVYLQMNSLKPEDTAVYYCNADVLYGDSYRGGYWGQGTQVTVSS | low polyreactivity |
| QVQLVESGGGLVQAGGSLRLSCAASGSTFEGNAMGWYRQAPGKERELVAAINSVAITNYADSVKGRFTISRDNAKNTVYLQMNSLKPEDTAVYYCNAQTNRPWGWPIGYDYWGQGTQVTVSS | low polyreactivity |

Source: the nanobody polyreactivity screen of Harvey et al. (2022)
